Laboratory results as given in patent publication US20100260668A1 (published 2010).

B1: DVD482 (bispecific antibody, human IgG1, kappa)
heavy: not shown
light: DIQMTQSPSSLSASVGDRVTITCSASQDISNYLNWYQQKPGKAPKVLIYFTSSLHSGVPSRFSGSGSGTDFTLTISSLQPEDFATYYCQQYSTVPWTFGQGTKVEIKRTVAAPSVFIFPPDIQMTQSPSSLSASVGDRVTITCRASQDVSTAVAWYQQKPGKAPKLLIYSASFLYSGVPSRFSGSGSGTDFTLTISSLQPEDFATTYYCQQSYTGTVTFGQGTKVEIKRTVAAPSVFIFPPSDEQLKSGTASVVCLLNNFYPREAKVQWKVDNALQSGNSQESVTEQDSKDSTYSLSSTLTLSKADYEKHKVYACEVTHQGLSSPVTKSFNRGEC
B2: DVD474 (bispecific antibody, human IgG1, kappa)
heavy: not shown
light: DIQMTQSPSSLSASVGDRVTITCRASQVIRRSLAWYQQKPGKAPKLLIYAASNLASGVPSRFSGSGSGTDFTLTISSLQPEDFATYYCQQSNTSPLTFGQGTKVEIKRTVAAPSVFIFPPDIQMTQSPSSLSASVGDRVTITCRASQDVSTAVAWYQQKPGKAPKLLIYSASFLYSGVPSRFSGSGSGTDFTLTISSLQPEDFATTYYCQQSYTGTVTFGQGTKVEIKRTVAAPSVFIFPPSDEQLKSGTASVVCLLNNFYPREAKVQWKVDNALQSGNSQESVTEQDSKDSTYSLSSTLTLSKADYEKHKVYACEVTHQGLSSPVTKSFNRGEC
B3: AB071 (antibody, human IgG1, kappa, L234A L235A, V domains shown)
VH: EVQLVESGGGLVQPGGSLRLSCAASGFTINASWIHWVRQAPGKGLEWVGAIYPYSGYTNYADSVKGRFTISADTSKNTAYLQMNSLRAEDTAVYYCARWGHSTSPWAMDYWGQGTLVTVSS
VL: DIQMTQSPSSLSASVGDRVTITCRASQVIRRSLAWYQQKPGKAPKLLIYAASNLASGVPSRFSGSGSGTDFTLTISSLQPEDFATYYCQQSNTSPLTFGQGTKVEIKR
B4: DVD486 (bispecific antibody, human IgG1, kappa)
heavy: not shown
light: DIQMTQSPSSLSASVGDRVTITCRASQVIRRSLAWYQQKPGKAPKLLIYAASNLASGVPSRFSGSGSGTDFTLTISSLQPEDFATYYCQQSNTSPLTFGQGTKVEIKRTVAAPSVFIFPPDIQMTQSPSSLSASVGDRVTITCRASQDVSTAVAWYQQKPGKAPKLLIYSASFLYSGVPSRFSGSGSGTDFTLTISSLQPEDFATTYYCQQSYTGTVTFGQGTKVEIKRTVAAPSVFIFPPSDEQLKSGTASVVCLLNNFYPREAKVQWKVDNALQSGNSQESVTEQDSKDSTYSLSSTLTLSKADYEKHKVYACEVTHQGLSSPVTKSFNRGEC
B5: DVD485 (bispecific antibody, human IgG1, kappa)
heavy: not shown
light: DIQMTQSPSSLSASVGDRVTITCRASQDVSTAVAWYQQKPGKAPKLLIYSASFLYSGVPSRFSGSGSGTDFTLTISSLQPEDFATTYYCQQSYTGTVTFGQGTKVEIKRTVAAPSVFIFPPDIQMTQSPSSLSASVGDRVTITCRASQVIRRSLAWYQQKPGKAPKLLIYAASNLASGVPSRFSGSGSGTDFTLTISSLQPEDFATYYCQQSNTSPLTFGQGTKVEIKRTVAAPSVFIFPPSDEQLKSGTASVVCLLNNFYPREAKVQWKVDNALQSGNSQESVTEQDSKDSTYSLSSTLTLSKADYEKHKVYACEVTHQGLSSPVTKSFNRGEC
B6: DVD471 (bispecific antibody, human IgG1, kappa, L234A L235A)
heavy: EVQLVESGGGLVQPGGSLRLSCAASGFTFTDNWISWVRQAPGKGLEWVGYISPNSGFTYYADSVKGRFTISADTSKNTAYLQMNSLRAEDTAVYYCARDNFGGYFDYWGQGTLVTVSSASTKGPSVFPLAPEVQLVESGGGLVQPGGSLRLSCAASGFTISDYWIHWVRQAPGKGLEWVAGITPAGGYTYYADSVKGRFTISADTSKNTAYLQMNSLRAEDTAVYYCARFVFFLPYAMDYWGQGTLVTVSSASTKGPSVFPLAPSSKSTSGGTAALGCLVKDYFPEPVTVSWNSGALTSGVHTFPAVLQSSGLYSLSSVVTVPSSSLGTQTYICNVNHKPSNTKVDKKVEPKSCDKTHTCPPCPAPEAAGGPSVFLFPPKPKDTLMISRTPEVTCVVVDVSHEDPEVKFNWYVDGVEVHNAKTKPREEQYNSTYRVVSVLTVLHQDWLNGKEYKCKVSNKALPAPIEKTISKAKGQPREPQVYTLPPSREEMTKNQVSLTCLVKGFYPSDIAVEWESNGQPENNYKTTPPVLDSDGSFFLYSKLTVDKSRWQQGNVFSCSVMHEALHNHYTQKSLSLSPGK
light: DIQMTQSPSSLSASVGDRVTITCRASQDVSTAVAWYQQKPGKAPKLLIYSASFLYSGVPSRFSGSGSGTDFTLTISSLQPEDFATTYYCQQSYTGTVTFGQGTKVEIKRTVAAPSVFIFPPDIQMTQSPSSLSASVGDRVTITCRASQDVSTAVAWYQQKPGKAPKLLIYSASFLYSGVPSRFSGSGSGTDFTLTISSLQPEDFATYYCQQSYTTPPTFGQGTKVEIKRTVAAPSVFIFPPSDEQLKSGTASVVCLLNNFYPREAKVQWKVDNALQSGNSQESVTEQDSKDSTYSLSSTLTLSKADYEKHKVYACEVTHQGLSSPVTKSFNRGEC

These binders were tested against recombinant human VEGF165 (human, UniProt P15692-4 27-191) (assay: cell-based or functional assay).
recombinant human VEGF165, sequence (P15692 other isoform, or with tags, fused parts or gaps limits assumed): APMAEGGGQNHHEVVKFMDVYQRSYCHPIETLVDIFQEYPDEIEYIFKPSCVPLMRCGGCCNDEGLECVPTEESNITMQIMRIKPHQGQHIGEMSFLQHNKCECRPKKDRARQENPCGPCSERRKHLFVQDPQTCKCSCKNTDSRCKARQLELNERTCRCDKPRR

Row | Binder | inhibition of HUVEC proliferation (IC50) [nM]
1 | B1 | 0.32
2 | B2 | 0.42
3 | B3 | 2.5
4 | B4 | 0.88
5 | B5 | 59.5
6 | B6 | 6.8
